# B1: RING finger protein 11 (Homo sapiens), Q9Y3C5 (parent)
# chain: MGNCLKSPTSDDISLLHESQSDRASFGEGTEPDQEPPPPYQEQVPVPVYHPTPSQTRLATQLTEEEQIRIAQRIGLIQHLPKGVYDPGRDGSEKKIRECVICMMDFVYGDPIRFLPCMHIYHLDCIDDWLMRSFTCPSCMEPVDAALLSSYETN
# partner: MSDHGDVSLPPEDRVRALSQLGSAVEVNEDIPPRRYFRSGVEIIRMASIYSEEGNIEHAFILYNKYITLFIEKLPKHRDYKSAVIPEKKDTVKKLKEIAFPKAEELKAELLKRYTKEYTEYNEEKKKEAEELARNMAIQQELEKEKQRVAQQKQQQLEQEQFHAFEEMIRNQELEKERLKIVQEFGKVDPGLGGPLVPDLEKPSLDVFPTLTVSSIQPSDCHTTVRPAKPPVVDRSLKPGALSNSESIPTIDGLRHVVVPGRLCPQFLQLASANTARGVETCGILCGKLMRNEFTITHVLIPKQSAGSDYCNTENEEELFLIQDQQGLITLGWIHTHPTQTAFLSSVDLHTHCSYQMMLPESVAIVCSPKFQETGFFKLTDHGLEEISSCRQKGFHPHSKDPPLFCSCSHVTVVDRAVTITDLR
# Variants of: B1
# Settings: with stabp_human STAMBP
row,effect of a mutation on the interaction,Variant
1,decreasing interaction,MGNCLKSPTSDDISLLHESQSDRASFGEGTEPDQEPPPPYQEQVPVPVYHPTPSQTRLATQLTEEEQIRIAQRIGLIQHLPKGVYDPGRDGSEKKIREAVICMMDFVYGDPIRFLPCMHIYHLDCIDDWLMRSFTCPSCMEPVDAALLSSYETN [C99A]

# — IntAct's records for PubMed 14755250
